Assay results taken from patent EP4714973A1 (Gracell Bioscience (Shanghai) Co., Ltd., dated 2026).

Legend:
[1] = biological target: T1, CLL1 on the surface of cells (HL60, KG1, Hela-CLL1) (UniProt Q5QGZ9 1-265, limits assumed); test: flow cytometry, serial dilution of VHH-mIgG2a Fc on HL60 cells
T1 construct: whole, on cells; HL60 and KG1 are human cell lines; also called CLEC12A; CD371
T1 sequence (looked up): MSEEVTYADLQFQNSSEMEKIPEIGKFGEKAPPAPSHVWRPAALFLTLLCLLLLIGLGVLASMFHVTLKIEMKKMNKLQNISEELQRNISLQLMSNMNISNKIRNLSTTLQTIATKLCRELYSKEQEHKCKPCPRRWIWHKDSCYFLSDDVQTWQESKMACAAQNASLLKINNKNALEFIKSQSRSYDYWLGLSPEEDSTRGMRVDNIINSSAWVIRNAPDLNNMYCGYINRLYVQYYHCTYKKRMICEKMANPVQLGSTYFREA

[2] = biological target: T1, CLL1 on the surface of cells (HL60, …); test: flow cytometry, serial dilution of scFv-mIgG2a Fc on HL60 cells (comparator, weaker signal)

B1: C1 single-domain antibody with the Fc fragment of murine IgG2a at the C-terminal (Fc fusion)
chain: QVQLVESGGGLVQPGGSLRLSCAASGFTFSSKTMGWARQVPGKAIEWLSGIYSDGSTYYADSVKGRFTISRDNAKNMVYLQMNSLKPEDTAVYYCATEDLTSYGRGTQVTVSS
notes: also called C1 VHH-mIgG2aFc; not shown: Fc fragment of murine IgG2a, added to the C-terminal of the VHH
binding result [1]: binds

B2: C3 single-domain antibody with the Fc fragment of murine IgG2a at the C-terminal (Fc fusion, not shown: a dimerising Fc or GST; small tags and cut ends)
VHH: QVQLVESGGGLVQPGGSLRLSCAASGFTFSSYAMGWARQVPGKEVEWVSGIYSDGRTYYADSVKGRFTISRDNAKNEVYLQMNSLKPEDTAVYYCAPEPGQGVGDYWGQGTQVTVSS
notes: also called C3 VHH-mIgG2aFc
binding result [1]: binds

B3: C5 single-domain antibody with the Fc fragment of murine IgG2a at the C-terminal (Fc fusion, not shown: a dimerising Fc or GST; small tags and cut ends)
VHH: QVQLVESGGGLVQPGGSLRLSCAASGFTFSSYDMGWARQVPGKAVEWVSGIYSDGSTYYADSVKGRFTISRDNAKNTVYLQMNSLKPEDTAVYYCATDPLTSELRSWGQGTQVTVSS
notes: also called C5 VHH-mIgG2aFc
binding result [1]: binds

B4: C7 single-domain antibody with the Fc fragment of murine IgG2a at the C-terminal (Fc fusion, not shown: a dimerising Fc or GST; small tags and cut ends)
VHH: QVQLVESGGGLVQPGGSLRLSCAASGFTFSSYAMGWARQVPGKEVEWVSGIYSDGSTNYADSVKGRFTISRDNAKNTVYLQMNSLRPEDTAVYHCATDPTVHSDLPVWGQGTLVTVSS
notes: also called C7 VHH-mIgG2aFc
binding result [1]: binds

B5: C9 single-domain antibody with the Fc fragment of murine IgG2a at the C-terminal (Fc fusion, not shown: a dimerising Fc or GST; small tags and cut ends)
VHH: QVQLVESGGGLVQPGGSLRLSCAASGFTFSSYAMGWARQVPGKDVEWVSGIYSDGSTYYADSVKGRFTISRYNAKNTVYLQMNSLKPEDTAVYYCATDPTLENQTTAWGQGTQVTVSS
notes: also called C9 VHH-mIgG2aFc
binding result [1]: binds

B6: scFv antibody M26 with the Fc fragment of murine IgG2a at the C-terminal (Fc fusion, not shown: a dimerising Fc or GST; small tags and cut ends)
scFv: EVQLQQSGPELVKPGASVKMSCKASGYTFTSYFIHWVKQKPGQGLEWIGFINPYNDGSKYNEKFKGKATLTSDKSSSTAYMELSSLTSEDSAVYYCTRDDGYYGYAMDYWGQGTSVTVSSGGGGSGGGGSGGGGSDIQMTQSPSSLSASLGERVSLTCRATQELSGYLSWLQQKPDGTIKRLIYAASTLDSGVPKRFSGNRSGSDYSLTISSLESEDFADYYCLQYAIYPYTFGGGTKLEIK
notes: also called M26 scFv
binding result [2]: binds
